Results taken from the DeepSol protein solubility set.

assay: soluble on expression in E. coli; label from the status in PepcDB or PDB records

| Sequence | soluble on expression in E. coli |
| --- | --- |
| MNRDDAPPIPDALSHRQLNRWLETAMQESSTPAKESNDILSAELERWANHTRFLLQRMAHKGDAIGSDRSPQQVMALGSFRTHLMLGLQALKASQPGR | not soluble |
| MNRGVITISESGTVSMPTYTVWMTLQEIADMYNVFGCYVRKAVKAIFKDGILKEQGVRRHVRKNDRISYDVYSLELVIAVAFRIDSIESRAFREFIMQSVIGRQTSRTKLVCIFTENAMA | not soluble |
| MNRICELLGIEHPIISGGMVWCSGWKLASAVSNCGGLGLIGAGSMHPDNLEHHIRSCKAATDKPFGVNVPLLYPEMDKIMEIIMREHVPVVVTSAGSPKVWTAKLKAAGSKVIHV | not soluble |
| MNRKRKWQIPPPSEPVTDEYLTSVTIGERKPLNDRIQLAEYDLRWPSMFSVAADKIRSALSEKALLVEHVGSTSVPGLAAKLIIDMLLGVTDSADEKSYVLPLEQQGFVLQAREPGWYEHRFFRLKSGDMEWHLHVFSAECEEIDRMLAFRNWLRVHDDDRQRYENVKRTLAARTWKHMQNYADAKSDIVREILGRAQDDHVVGITSEAVSAAFRFR | not soluble |
| MNRLMTLTGAGLALAFSVSIAQAQVVVSSKIDTEGGVLGNIILAVLNQNKIETTDRIQLGATPVVRKAITAGEIDIYPEYTGNAAFFFSKADDPLWKDAAKGYEEAKTLDYDANKIVWLAPSPANNTWAIALRKDVADKNNLKTLSDFGKYVAGGGTVVLAASSEFVNSAAALPAFQTTYGFTMKPDQLITLSGGDTAATIAAAANQTNNANAAMVYGTDGGIAPSGLVVLEDDKHVQPVYQPAPIIREEVLKKHPNIEELLKPVFEKLDLATLQDLNARVQVGGEQAKTVAMDFLTKNGFAK | not soluble |
| MNSAVGAELFMGDDGVSLRPGLGGTESVLESWRYIMGKLRVGRFLISSRVNGPGRRFVIWFQGCPIRCRGCLNPEFHDEDGGHLIETARLVDMIRDLRDEIEGVTFTGGEPLAQAMELVKLAGAVKSMGLTVVCFTGYEMDEILKGNIEGGLELLEFVDVLIDGPYIEEKSAPLLWRGSTNQDVYFLTERYAEFRDRVMACSEMEAELKVGADGVYMTGIFDVEFWEELRRRLGDGSLEHHHHHH | not soluble |
| MNSEALDNFEAPRFRPPDEPRMMKNYTTQFSPLDTPPPMNGTPPIAGMHHYLTDPDPSREMMDLPANISNFGRDDASLVLPANLMGGADTSLPNIDRYKMDLPSEIYPNDPMPRGISTPPMNMKFNLGENIGRDVDRGVMNGFGAERQYQDPMIEIEQNLGNIRFESGNEKIKATITKFDEDYYGNEICAQCQAEDAYMDRMRRQAEEERRKYEETMKRAKMYEDLTREKEETFKREEAERNKALRDHVDRVNAEMIEMKKRRPKSPVLENYIFRHESPRSRDVEVRTRKDAYRAELDRQVEEKRLRRIAEFEKNEAIDATSNARAALEFANAREAERKSIEHAKEMARKQLEFQMEMSRVGAPSDKNWLWWAERPDEHGWRDARLKGLKHTNQVERNQTFKQSIGMLEEFKARQAHDDMVMRDNRRAKYDKLRDQLHENSKMLYPLTKTESRPIIVQPDPRVEAAWREAHEKYDRKFAVLQDNAMKSISGAALDGVAHATTSCRRCARCARPMERKTTLFVNRGETILPHQANWHS | not soluble |
| MNSGPKVSVIMGIYNCERTLAESIESILSQSYKNWELILCDDASTDGTLRIAKQYAAHYSDRIKLIQNKTNKRLAASLNHCLSHATGDYIERQDGDDLSFPRRLEKQVAFLEKHRHYQVVGTGMLVFDEFGVRGARILPSVPEPGIMAKGTPFCHGTIMMRASAYRTLKGYRSVRRTRRMEDIDLWLRFFEEGFRGYNLQEALYKVREDSDAFKRRSFTYSIDNAILVYQACRRLKLPLSDYIYIAKPLIRAFMPAAVMNRYHKKRVMNQKEGLVKHELEHHHHHH | not soluble |
| MNSKVGCLMAILLLAGCAKQTPPPQANNGWLKKTPQGNSLNVAKSSAGSTTVAYSDVIKQAASHYGVDETLIKAIIQVESGYNPDVVSRSNAVGLMQIKASTAGRDAYRMKGRNGQPSSRELKDPVKNIDIGAAYINILQNQQLAGINDPQTLRYATIVSYANGAGAMLRTFSSDKRLAVNKINSLSPNEFYQHIQKKHPAAQAPRYLWKVDTAYRAMSE | not soluble |
| MNSLIPPPTSEQQMNMFRLRDKMSLLNAEFLKVINGYFTEKNHYDFSGTMKSYMDHVAQLKQIYKVDDDVAADMTVPRRTENSSESSGETVAPRKIAKAVRKNGTPKNPLNSTVFAASSPAATVASVPKFGDISVITKETPAPLAKTAEPLVAPAAPATARKRAIRGGGPLGGAESVVFKSGEDGQAATSSVKIPATTIKFPEPTKDFWTKKSDAPAAPSNSGSLFAFLGKELFSIKKNPPIYQNFSGDKPKETPKFSGFSFGKKPAEPSEEPKAADSTPKLTFGSPKEADLPKPASSLFGASPSKPLVFGGSSADSTTSAPKPFSALSTAASLFGSSSASTTTTATQPLSFGSSSTGGSSLFSGFAGLAQKAMENQNQAKPEGSGEDDEGEYVPPKVETVENQEPDAVLSSKVSVFKFTGKEYTKLGVGMLHIKDNDGKFSVLIRAATATGTVWLNSLCNKAMKATVVDAKGDRIRLTCPSSSTEMATMMIRFGTADGAKKFTDKILEVAV | not soluble |
| MNSNGPLMEHGKRRVAYYYDSNIGNYYYGQGHVMKPHRIRMTHHLVLNYGLYRNLEIFRPFPASFEDMTRFHSDEYMTFLKSANPDNLKSFNKQMLKFNVGEDCPLFDGLYEFCQLSSGGSLAAATKLNKQKVDIAINWMGGLHHAKKSEASGFCYTNDIVLGILELLKYHKRVLYVDIDVHHGDGVEEAFYTTDRVMTVSFHKYGDFFPGTGDLKDIGAGKGKLYSVNVPLRDGITDVSYQSIFKPIMTKVMERFDPCAVVLQCGADSLNGDRLGPFNLTLKGHGECARFFRSYNVPLMMVGGGGYTPRNVARCWTYETSIAVDKEVPNELPYNDYFEYFGPNYRLHIESSNAANENSSDMLAKLQTDVIANLEQLTFVPSVQMRPIPEDALSALNDDSLIADQANPDKRLPPQITDGMIQDDGDFYDGEREGDDRRNESDAKRAAQFESEGGEKRQKTE | not soluble |
| MNSQNSQKSSSFDDFAGQVVIYTEIGNSKCAKGRDLLHREGIPYTDVSLDSFPQHSQEIFDRTGTDVLPQIFFNNIYIGHETDLERVIGETNKWESLVEHVRREKCTNGGPIVPHPMNAIGFEEYETENNNKCCDEVLWVPDEYSKLVRDMKNAQLIKNNRVKLKVYRNSFKGEELVEWLMRQKGIKRSEALEIGQELIDRHVGQQTSKESGMTFSPDRYYQLVEDDENKPLNAGEDDGDKKQSFPVAECNEKFSKLLKPIFNDILTDDNQSIIYGGLSTNDNFTRYLQFSRELNHVTFEGSTSDDRLTFFINVYNMMLIHITLKHGPPIGIWQRRKLVNGTYYLIGGHRYALHSIINGILRGNKKGPGMLWKAFGKQDARLPISLAVCDPLIYFSLCSGSKTTPPLRVYHSKSIHQEMRENARQTLLRGDKFLRVDMKKNVIHLGKTFKWFSDDFGGSTEKILQWILDVLDTNESDKKHNLQKLFFTGEYSIEYIPYDWSTNGRMDEKEREDIDGGGGGGGDVRRTKTIE | not soluble |
| MNSSRPYLVRALYEWIVDNDCTPHILVNAEFAGVKVPPGYASDGQIVLNVSPSAVRHLHMDNEAVSFEGRFGGVAQSLYIPALAVMAIYARENGQGMVFDLEQPGPVDDEPGDDDGGPSDEPPRPSGRPSLKVVK | not soluble |
| MNSTYQLFIDVTSRKCILAIYKNFKIHTSIIVDTNNNLTDIIVEHLNNLLKITNLQYQDLEAIYLNTGPGSFTGIRVGAIVAKTICTIFNKIKLFINDSLNIIANGKNDVFVYLDAKGNKSYVITITNNIQNEYKIITNKELQNELKNTSLTIIDANQIDYHDLIYNLKFDNFKLTNILDFRLNYVKKPLNLEHHHHHH | not soluble |
| MNTETSTQSAPSDTYDTSIYYNSSPRVTANDITTLTSFAAPAPQVLDYANTQYDIYRNQPAYYLPSYAPTAPTTFYSDFANFNVTRSQDFASVPAVANSSDVKPIIIKQEKSTPNATELIIQSRVDSQHEDTTTSTAGGAGVGGPRRTKFVLSVDRRKAATMRERRRLRKVNEAFEVVKQRTCPNPNQRLPKVEILRSAIDYINNLERMLQQAGKMTKIMEQNQHLQMTQQINGAPPHDYVTSSHFASSSYNPENMFDDDDLTDSDDDRDHHKLGNAVDLRRRNSLDRLSRIVASIPNEEAMTDEQLLQPANDVIDGEKKLEML | not soluble |
| MNTLEKIQKNLENFSKSERKVAEVIMASPQTAIHSSIATLAKMADVSEPTVNRFCRRLDTKGFPDFKLHLAQSLANGTPYVNRNVEEDDGPDAYTHKIFESTMACLDVAKNSLDPMQVNRAVDLLTQAKRISFFGLGASSSVARDAQNKFIRFNIPITCFEDIVMQRMSCINCSDNDVIVLISHTGRTKSQVEIANLARENGATVIAITAKDSPLEKASSLAITLDIPEDTDVYMPMASRVVQMTVIDVLATGFTLRRGTGFRENLKRVKDALKDSRYDKLSQY | not soluble |
| MNTLSDSASPLYEKVKDFVLGNIGSGKWARNSRLPSENELVSALGVSRMTVHRALRELTSEGHLRRIQGVGTFVAPPRPRSTLIEISNIITEIKTRGSRHRAEVVVLERIARPEPELLLAFEFETVKPVDHSVVIHFENDLPVQLEERYVNPNLVSGYIDQDFAAVATYDYLQNATPLTEVEHLISALPANAEQARLLNVRPGDCCLILHRKTWTGPVVATVNTFTYVGSRYSLGSRYLHGGK | not soluble |
| MNVACPALLIAGPASGQGKTTLTAALARHHVRQGRRVRVFKVGPDFLDPMLLQAASGQPVYQLDLWLVGEDQCRSLLFEAARSADLILIEGVMGLFDGTPSAADLAQTFGVPVLAVIDASGMAETFGAVAHGLATHRPGLPFAGVVANRVASPGHADRLRASLPGAIPFRGAFFRQPDAGFPDRHLGLVQAPELGDLDRRLDTLADAVAGTGLADLPDSVPFAPESAAVPPRLLEGVRIGIARDAAFSFLYPANLDLLRAMGATPVFFSPLGDRSLPEVDSVYLPGGYPELHLDTLAGNGGMKESLREHVAAGKPLLAECGGLLYLLEELADQNGRTSAMCGILPGRAKMQTRLAGLGLQSAAFRSGTLRAHTFHYSRLETPLSPLLMAERRRGGSAGEAVYRQGRLTASYLHWYLPSCPEAAAELLRPLEHHHHHH | soluble |
| MNVHQRYAMGDSLAAKHGLWSEEQIDAAARVRRIAEEQGLETIRFSFPDQHGILRGKTLVASEALNCLDNGATITTTMLAKDTSHKTVFPVFQAGGGFGMSEMQGGADVVMLPDPTTFRVLPWAPTTGWVLCDLYFADGRPVQFATRNIYRAALQKLAARGYDYKAGLEVEFHVFKVVDSKMRPEHAGQPGEPPEVSLLSHGYQYLTEQRYDQMEPVLELIRRDVVALGLPLRSIEVEFGPSQCEFTFQPTVGLLPADLMVLFRAAVKQICRRHGYHATFMCRPRIPNVVSSGWHLHQSVVARDGGRNAFMSDSDVLSDFGRHYLAGLMTHARAATVFTTPTINGYKRYRSYSLAPDRAIWGRDNRGVMLRVLGGAGDKATRIENRVGEPAANPYLYMASQILSGLDGVDRALDPGPSADTPYETKADLLPKSLREAIFALRDDPFFRTALGDEFVDYYTFIKNAEIERFQAEVTEWEQREYFEMF | soluble |
| MNVSFSTSSLSVSNSRTRLISFRETEHGDQKSSEEWKTSTKLEALGSMEGELAHLLSTCKPETLNHNKTELSGFRNLFARFLRAKPTVDWSKIEPLPEGAIRPYKSLGHVVDKELIASQLRKLVVVKLNGGLGTSMGCKGPKSVISVRNDLTFLDLTMQQIQTLNKTYGVDVPLVLMNSFNTNEDTQKVLKKYANVKVSVHTFSQSQYPRINRETLLPIVKSLEADDNECWYPPGHGNFYEAFHNSGLLDKFLADGKEYCFLSNIDNMGATVDLSILNFVLNPSPDQTAPEFLMEVTDKTRADVKGGTLIQYEGRLMLLEIAQVPKDYVDEFKSISKFRIFNTNNLWAKLDAMRKIVVENKLEMEVIVNPKHLDRGLDVIQLETAAGAAIKSFSGAVGVNVPRSRFLPVKKTSDLLLLMSNLYDIDNGSLTLSHQRSFPTTPLVKLGSSFDKVKDYLGRFNGIPDLLELDHLTVSGDVWFGKDVSLKGTVIIIANHGDRIDIPPGSILENKIVSGNLRILEH | not soluble |
